Results as given in publication PMC12650828.

Target: cell-surface nucleolin (NCL) (UniProt P19338)
Assay: competition
Conditions: MST: 300 nM FAM-aptamer, NCL 1.95 nM-4 uM, binding buffer not specified, 25 C, 15 min; AP1-AP6 and Mut folded in 100 mM KCl, 10 mM K3PO4 pH 7.0; AS1411 in …; scale: % decrease of anti-NCL fluorescence at 4 uM

Chain of cell-surface nucleolin (NCL) (P19338 whole entry): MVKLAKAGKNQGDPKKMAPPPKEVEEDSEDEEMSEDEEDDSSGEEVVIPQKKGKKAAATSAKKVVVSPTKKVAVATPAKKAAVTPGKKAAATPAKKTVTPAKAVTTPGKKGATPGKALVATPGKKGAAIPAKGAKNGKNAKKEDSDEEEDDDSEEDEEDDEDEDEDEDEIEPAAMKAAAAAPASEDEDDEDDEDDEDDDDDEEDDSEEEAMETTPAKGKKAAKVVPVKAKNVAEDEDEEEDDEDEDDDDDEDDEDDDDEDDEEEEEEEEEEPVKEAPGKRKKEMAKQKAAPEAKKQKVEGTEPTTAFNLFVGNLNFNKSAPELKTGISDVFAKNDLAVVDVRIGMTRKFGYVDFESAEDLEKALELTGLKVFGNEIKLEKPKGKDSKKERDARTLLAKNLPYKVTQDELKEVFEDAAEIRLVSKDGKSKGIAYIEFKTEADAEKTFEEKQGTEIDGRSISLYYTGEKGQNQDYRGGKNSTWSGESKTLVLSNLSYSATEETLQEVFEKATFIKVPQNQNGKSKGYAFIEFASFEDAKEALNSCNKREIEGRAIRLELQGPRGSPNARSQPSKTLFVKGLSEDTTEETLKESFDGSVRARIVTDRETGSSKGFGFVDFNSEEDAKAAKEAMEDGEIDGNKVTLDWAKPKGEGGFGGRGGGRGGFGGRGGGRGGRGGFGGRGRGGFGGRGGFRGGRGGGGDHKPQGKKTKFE

For GUUAGGGUUUGGGAUUG [AP1], which binding signal is on record?
Its binding signal is 50.
